Experimental data from the supplement of paper PMC11246515.
± gives the standard deviation of the averaged measurements.

Assay: total protein half-life in vivo (active degradation + dilution); higher = more stable protein
[1] = E. coli NCM3722 delta-clpP delta-lon delta-hslV, growth: N-lim chemostat, doubling time 6 h
[2] = E. coli NCM3722 delta-hslV, growth: N-lim chemostat, doubling time 6 h
[3] = wild type E. coli NCM3722, growth: C-lim chemostat, doubling time 3 h
[4] = wild type E. coli NCM3722, growth: C-lim chemostat, doubling time 6 h
[5] = wild type E. coli NCM3722, growth: C-lim chemostat, doubling time 12 h
[6] = wild type E. coli NCM3722, growth: P-lim chemostat, doubling time 6 h
[7] = wild type E. coli NCM3722, growth: P-lim chemostat, doubling time 12 h
[8] = E. coli NCM3722 delta-lon, growth: N-lim chemostat, doubling time 6 h
[9] = E. coli NCM3722 delta-smpB, growth: N-lim chemostat, doubling time 6 h
[10] = wild type E. coli NCM3722, growth: N-lim chemostat, doubling time 6 h
[11] = E. coli NCM3722 delta-clpP, growth: N-lim chemostat, doubling time 6 h
[12] = wild type E. coli NCM3722, growth: N-lim chemostat, doubling time 12 h

Row | Sequence | total protein half-life in vivo [1] [h] | total protein half-life in vivo [2] [h] | total protein half-life in vivo [3] [h] | total protein half-life in vivo [4] [h] | total protein half-life in vivo [5] [h] | total protein half-life in vivo [6] [h] | total protein half-life in vivo [7] [h] | total protein half-life in vivo [8] [h] | total protein half-life in vivo [9] [h] | total protein half-life in vivo [10] [h] | total protein half-life in vivo [11] [h] | total protein half-life in vivo [12] [h]
1 | MIWKRHLTLDELNATSDNTMVAHLGIVYTRLGDDVLEAEMPVDTRTHQPFGLLHGGASAALAETLGSMAGFMMTRDGQCVVGTELNATHHRPVSEGKVRGVCQPLHLGRQNQSWEIVVFDEQGRRCCTCRLGTAVLG [P0A8Y8] | 6.69 | – | – | – | – | – | – | – | – | – | – | –
2 | METTQTSTIASKDSRSAWRKTDTMWMLGLYGTAIGAGVLFLPINAGVGGMIPLIIMAILAFPMTFFAHRGLTRFVLSGKNPGEDITEVVEEHFGIGAGKLITLLYFFAIYPILLVYSVAITNTVESFMSHQLGMTPPPRAILSLILIVGMMTIVRFGEQMIVKAMSILVFPFVGVLMLLALYLIPQWNGAALETLSLDTASATGNGLWMTLWLAIPVMVFSFNHSPIISSFAVAKREEYGDMAEQKCSKILAFAHIMMVLTVMFFVFSCVLSLTPADLAAAKEQNISILSYLANHFNAPVIAWMAPIIAIIAITKSFLGHYLGAREGFNGMVIKSLRGKGKSIEINKLNRITALFMLVTTWIVATLNPSILGMIETLGGPIIAMILFLMPMYAIQKVPAMRKYSGHISNVFVVVMGLIAISAIFYSLFS [P0AAD6] | – | 0.951 | 1.85 | 5.62 ± 2.4 | 2.71 | 1.58 | 3.86 ± 0.51 | – | – | – | – | –
3 | MSEPLDLNQLAQKIKQWGLELGFQQVGITDTDLSESEPKLQAWLDKQYHGEMDWMARHGMLRARPHELLPGTLRVISVRMNYLPANAAFASTLKNPKLGYVSRYALGRDYHKLLRNRLKKLGEMIQQHCVSLNFRPFVDSAPILERPLAEKAGLGWTGKHSLILNREAGSFFFLGELLVDIPLPVDQPVEEGCGKCVACMTICPTGAIVEPYTVDARRCISYLTIELEGAIPEELRPLMGNRIYGCDDCQLICPWNRYSQLTTEEDFSPRKPLHAPELIELFAWSEEKFLKVTEGSAIRRIGHLRWLRNIAVALGNAPWDETILTALESRKGEHPLLDEHIAWAIAQQIERRNACIVEVQLPKKQRLVRVIEKGLPRDA | 5.59 ± 0.68 | – | > 4 | – | – | – | 3.79 | 2.85 ± 0.33 | 1.41 | 1.85 | – | –
4 | MFKEIFTRLIRHLPSRLVHRDPLPGAQQTVNTVVPPSLSAHCLKMAVMPEEELWKTFDTHPEGLNQAEVESAREQHGENKLPAQQPSPWWVHLWVCYRNPFNILLTILGAISYATEDLFAAGVIALMVAISTLLNFIQEARSTKAADALKAMVSNTATVLRVINDKGENGWLEIPIDQLVPGDIIKLAAGDMIPADLRILQARDLFVAQASLTGESLPVEKAATTRQPEHSNPLECDTLCFMGTTVVSGTAQAMVIATGANTWFGQLAGRVSEQESEPNAFQQGISRVSMLLIRFMLVMAPVVLLINGYTKGDWWEAALFALSVAVGLTPEMLPMIVTSTLARGAVKLSKQKVIVKHLDAIQNFGAMDILCTDKTGTLTQDKIVLENHTDISGKTSERVLHSAWLNSHYQTGLKNLLDTAVLEGTDEESARSLASRWQKIDEIPFDFERRRMSVVVAENTEHHQLVCKGALQEILNVCSQVRHNGEIVPLDDIMLRKIKRVTDTLNRQGLRVVAVATKYLPAREGDYQRADESDLILEGYIAFLDPPKETTAPALKALKASGITVKILTGDSELVAAKVCHEVGLDAGEVVIGSDIETLSDDELANLAQRTTLFARLTPMHKERIVTLLKREGHVVGFMGDGINDAPALRAADIGISVDGAVDIAREAADIILLEKSLMVLEEGVIEGRRTFANMLKYIKMTASSNFGNVFSVLVASAFLPFLPMLPLHLLIQNLLYDVSQVAIPFDNVDDEQIQKPQRWNPADLGRFMIFFGPISSIFDILTFCLMWWVFHANTPETQTLFQSGWFVVGLLSQTLIVHMIRTRRVPFIQSCASWPLMIMTVIVMIVGIALPFSPLASYLQLQALPLSYFPWLVAILAGYMTLTQLVKGFYSRRYGWQ [P0ABB8] | 6.31 | 6.44 ± 0.53 | – | 6.91 ± 0.4 | 14.8 ± 0.69 | 6.71 ± 0.3 | – | – | 5.89 ± 0.47 | 6.72 ± 0.55 | 6.68 ± 0.68 | 14.4 ± 1.3
5 | MRSKYIVIEGLEGAGKTTARNVVVETLEQLGIRDMVFTREPGGTQLAEKLRSLVLDIKSVGDEVITDKAEVLMFYAARVQLVETVIKPALANGTWVIGDRHDLSTQAYQGGGRGIDQHMLATLRDAVLGDFRPDLTLYLDVTPEVGLKRARARGELDRIEQESFDFFNRTRARYLELAAQDKSIHTIDATQPLEAVMDAIRTTVTHWVKELDA [P0A720] | 4.32 ± 0.51 | 4.4 ± 0.41 | 3.059 ± 0.011 | 5.11 ± 0.073 | 9.9341 ± 0.0012 | 5.59 ± 0.5 | 11.3 ± 0.12 | 4.52 ± 0.32 | 4.25 ± 0.13 | 3.93 ± 0.26 | 4 ± 0.41 | 6.63 ± 0.1
6 | MKKILLMLSLLFFTTAGFSEVSDTLVTGGYDKQAMSDAIKHARKETDKFIEVMNKKDADTFAVKAPITDHGRTEHFWLTDVTYSNGMFIGVISNDPGIVTNVEYGQEWKIKKEDISDWMYTRGDKIYGGYTIDPLLVTYPKEEADELRAKLVR | 3.76 | 4.78 ± 1.5 | 2.2 | 5.15 ± 0.19 | 6.65 | 3.47 ± 0.23 | 5.28 ± 1.1 | 5.28 | 4.01 ± 0.41 | 4.65 | 4.8 | 7.64
7 | MSTPDNHGKKAPQFAAFKPLTTVQNANDCCCDGACSSTPTLSENVSGTRYSWKVSGMDCAACARKVENAVRQLAGVNQVQVLFATEKLVVDADNDIRAQVESALQKAGYSLRDEQAAEEPQASRLKENLPLITLIVMMAISWGLEQFNHPFGQLAFIATTLVGLYPIARQALRLIKSGSYFAIETLMSVAAIGALFIGATAEAAMVLLLFLIGERLEGWAASRARQGVSALMALKPETATRLRKGEREEVAINSLRPGDVIEVAAGGRLPADGKLLSPFASFDESALTGESIPVERATGDKVPAGATSVDRLVTLEVLSEPGASAIDRILKLIEEAEERRAPIERFIDRFSRIYTPAIMAVALLVTLVPPLLFAASWQEWIYKGLTLLLIGCPCALVISTPAAITSGLAAAARRGALIKGGAALEQLGRVTQVAFDKTGTLTVGKPRVTAIHPATGISESELLTLAAAVEQGATHPLAQAIVREAQVAELAIPTAESQRALVGSGIEAQVNGERVLICAAGKHPADAFTGLINELESAGQTVVLVVRNDDVLGVIALQDTLRADAATAISELNALGVKGVILTGDNPRAAAAIAGELGLEFKAGLLPEDKVKAVTELNQHAPLAMVGDGINDAPAMKAAAIGIAMGSGTDVALETADAALTHNHLRGLVQMIELARATHANIRQNITIALGLKGIFLVTTLLGMTGLWLAVLADTGATVLVTANALRLLRRR | 4.91 ± 0.22 | 4.07 ± 0.092 | 2.62 ± 0.26 | 4.55 ± 0.4 | 6.13 ± 1.8 | 4.2 ± 0.081 | 7.64 ± 0.21 | 5.05 ± 0.95 | 4.331 ± 0.021 | 3.874 ± 0.016 | 4.33 ± 0.16 | 7.59 ± 0.2
